Kd, koff and kon data for one molecule are collected here from CN111393528A (UNIV CHINA PHARMA, dated 2020).

In general, Kd refers to the free concentration of one partner at which half of the binding sites on the other are occupied at equilibrium, for simple one-to-one binding. By koff is commonly meant the first-order rate constant of dissociation. Usually kon stands for the second-order rate constant of association.

In this assay the target is T1, FRα重组蛋白 (叶酸受体α, folate receptor α recombinant protein) (UniProt P15328 25-233, limits assumed).
T1 construct: Recombinant protein used for panning and ELISA (coated) and, after biotinylation (biotin:protein 20:1), on streptavidin sensors for BLI
T1 sequence (P15328 25-233 limits assumed): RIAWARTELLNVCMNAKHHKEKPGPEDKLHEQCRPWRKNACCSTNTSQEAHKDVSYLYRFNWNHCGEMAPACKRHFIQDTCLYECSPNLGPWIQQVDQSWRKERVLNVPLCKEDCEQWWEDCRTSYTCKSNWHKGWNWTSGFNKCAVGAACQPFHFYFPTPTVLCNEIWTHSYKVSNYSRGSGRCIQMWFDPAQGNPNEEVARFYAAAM
The assay is described as follows: BLI (ForteBio Octet), biotinylated FRα on streptavidin sensor, scFv in solution.

B1: FR ScFv (靶向叶酸受体α的单链抗体) (scFv)
scFv: QAQLLESGGGLVQPGGSLRLSCAASGFTFSSYAMSWVRQAPGKGLEWVSAISGSGGSTYYADSVEGRFTISRDNSKNTLYLQMNSLRAEDTAVYYCARRAVGRGWRFWGQGTMVTVSSGGGGSGGGGSGGGGSDIVLTQSPSASGTPGQRVTISCSGSSSNIGSNYVYWYQQLPGTAPKLLIYRNNQRPSGVSDRFSGSKSGTSASLAISGLRSEDEADYYCAAWDDSLSARVFGGGTKVDIKR
notes: Soluble scFv expressed in E. coli BL21 from pET22b (BamH I/Hind III), purified on a nickel column; about 28.32 kDa; Vector-derived residues at the N-terminus (pelB leader, cloning site) are not described; also called 叶酸受体α单链抗体; FRα单链抗体; not shown: C-terminal His tag from the pET22b vector (fused downstream of the gene)
In the case of B1, the Kd came out at 41.3 nM, the koff was 0.00127 s⁻¹ and the kon turned out to be 30900 M⁻¹ s⁻¹.
